Laboratory results as given in patent publication WO2012132067A1 (dated 2012).
Each block holds one binder with its values, some of them ahead of it.

How the values were obtained:
human FcRn = target: T1, human FcRn (human, UniProt P55899 24-290; P61769 21-119, limits assumed); assay: SPR (Biacore), antibody held on immobilised human FcRn, FcγR injected, pH 7.4, 25 C
T1 construct: also called hFcRn

human FcγRIa [1] = target: T2, human FcγRIa (human, UniProt P12314 16-292, limits assumed); assay: as above
T2 construct: also called hFcgRI; hFcγRIa

human FcγRIIb = target: T3, human FcγRIIb (human, UniProt P31994 43-217, limits assumed); assay: as above
T3 construct: also called hFcgRIIb
T3 sequence: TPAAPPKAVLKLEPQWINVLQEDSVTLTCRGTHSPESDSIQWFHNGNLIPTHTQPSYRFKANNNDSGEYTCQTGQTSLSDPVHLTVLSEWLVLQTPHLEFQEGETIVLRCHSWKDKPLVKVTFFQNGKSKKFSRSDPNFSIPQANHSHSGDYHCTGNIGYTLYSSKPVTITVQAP

mouse FcγRI = target: T4, mouse FcγRI (mouse, UniProt P26151 25-297); assay: as above
T4 sequence (looked up): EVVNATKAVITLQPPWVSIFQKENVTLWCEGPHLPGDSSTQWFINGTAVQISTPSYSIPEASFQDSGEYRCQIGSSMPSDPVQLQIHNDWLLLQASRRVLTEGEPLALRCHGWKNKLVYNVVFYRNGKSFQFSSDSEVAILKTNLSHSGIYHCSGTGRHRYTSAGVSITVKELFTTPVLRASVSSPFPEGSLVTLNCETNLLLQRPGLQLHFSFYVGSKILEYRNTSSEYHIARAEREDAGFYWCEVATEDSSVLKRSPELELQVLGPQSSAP

mouse FcγRIIb [2] = target: T5, mouse FcγRIIb (mouse, UniProt P08101 30-210, limits assumed); assay: as above
T5 sequence (looked up): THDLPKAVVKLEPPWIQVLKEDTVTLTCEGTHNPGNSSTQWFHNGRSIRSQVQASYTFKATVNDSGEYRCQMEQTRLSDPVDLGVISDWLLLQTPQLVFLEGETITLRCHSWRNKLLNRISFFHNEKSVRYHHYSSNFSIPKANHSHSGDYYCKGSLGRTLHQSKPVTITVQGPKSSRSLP

mouse FcγRIII [3] = target: T6, mouse FcγRIII (mouse, UniProt P08508 31-215); assay: as above
T6 sequence (looked up): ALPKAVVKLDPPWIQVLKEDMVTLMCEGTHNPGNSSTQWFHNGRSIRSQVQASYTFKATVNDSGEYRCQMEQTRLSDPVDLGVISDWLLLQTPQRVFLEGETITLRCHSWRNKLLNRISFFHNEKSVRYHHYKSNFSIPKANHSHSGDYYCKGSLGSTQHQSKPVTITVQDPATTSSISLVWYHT

human FcγRIa [4] = target: T2, human FcγRIa; assay: Biacore, Protein L capture, human FcγR injected, pH 7.4, 25 C (Table 13 not given)
mouse FcγRIIb [5] = target: T5, mouse FcγRIIb; assay: Biacore, Protein L capture, mouse FcγR injected, pH 7.4, 25 C (Table 7 not given); weaker than F21
mouse FcγRIII [6] = target: T6, mouse FcγRIII; assay: as above
mouse FcγRIIb [7] = target: T5, mouse FcγRIIb; assay: Biacore, Protein L capture, mouse FcγR injected, pH 7.4, 25 C (Table 7 not given); weaker than F157

T2 sequence (P12314 16-292 limits assumed): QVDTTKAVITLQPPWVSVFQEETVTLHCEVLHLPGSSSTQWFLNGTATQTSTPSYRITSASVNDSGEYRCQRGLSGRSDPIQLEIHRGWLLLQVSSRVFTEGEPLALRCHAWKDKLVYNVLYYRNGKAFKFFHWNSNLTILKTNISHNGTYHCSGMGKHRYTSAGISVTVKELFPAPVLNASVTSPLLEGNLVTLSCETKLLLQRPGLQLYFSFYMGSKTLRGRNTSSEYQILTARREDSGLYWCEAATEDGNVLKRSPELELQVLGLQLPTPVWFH

- binding result (human FcRn): binds
- binding result (human FcγRIa [1]): binds
- binding result (human FcγRIIb): binds
- binding result (mouse FcγRI): binds
- binding result (mouse FcγRIIb [2]): binds
- binding result (mouse FcγRIII [3]): binds
B1: Fv4-IgG1-F157 (antibody)
heavy: QVQLQESGPGLVKPSETLSLTCAVSGHSISHDHAWSWVRQPPGEGLEWIGFISYSGITNYNPSLQGRVTISRDNSKNTLYLQMNSLRAEDTAVYYCARSLARTTAMDYWGEGTLVTVSSASTKGPSVFPLAPSSKSTSGGTAALGCLVKDYFPEPVTVSWNSGALTSGVHTFPAVLQSSGLYSLSSVVTVPSSSLGTQTYICNVNHKPSNTKVDKKVEPKSCDKTHTCPPCPAPELLGGPSVFLFPPKPKDTLMISRTAEVTCVVVDVSHEDPEVKFNWYVDGVEVHNAKTKPREEQYNSTYRVVSVLTPLHQDWLNGKEYKCKVSNKALPAPIEKTISKAKGQPREPQVYTLPPSRDELTKNQVSLTCLVKGFYPSDIAVEWESNGQPENNYKTTPPVLDSDGSFFLYSKLTVDKSRWQQGNVFSCSVLHEALHYHYTQKSLSLSP
light: DIQMTQSPSSLSASVGDSVTITCQASTDISSHLNWYQQKPGKAPELLIYYGSHLLSGVPSRFSGSGSGTDFTFTISSLEAEDAATYYCGQGNRLPYTFGQGTKVEIERTVAAPSVFIFPPSDEQLKSGTASVVCLLNNFYPREAKVQWKVDNALQSGNSQESVTEQDSKDSTYSLSSTLTLSKADYEKHKVYACEVTHQGLSSPVTKSFNRGEC
notes: VH3-IgG1-F157 with VL3-CK; copies: 2 + 2

- binding result (human FcγRIa [4]): binds
- binding result (mouse FcγRIIb [5]): binds
- binding result (mouse FcγRIII [6]): binds
B2: VH3/L(WT)-IgG1-F140 (antibody)
heavy: QVQLQESGPGLVKPSETLSLTCAVSGHSISHDHAWSWVRQPPGEGLEWIGFISYSGITNYNPSLQGRVTISRDNSKNTLYLQMNSLRAEDTAVYYCARSLARTTAMDYWGEGTLVTVSSASTKGPSVFPLAPSSKSTSGGTAALGCLVKDYFPEPVTVSWNSGALTSGVHTFPAVLQSSGLYSLSSVVTVPSSSLGTQTYICNVNHKPSNTKVDKKVEPKSCDKTHTCPPCPAPELLGGPKVFLFPPKPKDTLYISRTPEVTCVVVDVSHEDPEVKFNWYVDGVEVHNAKTKPREEQYNSTYRVVSVLTPLHQDWLNGKEYKCKVSNKALPAPIEKTISKAKGQPREPQVYTLPPSRDELTKNQVSLTCLVKGFYPSDIAVEWESNGQPENNYKTTPPVLDSDGSFFLYSKLTVDKSRWQQGNVFSCSVMHEALHYHYTQKSLSLSP
light: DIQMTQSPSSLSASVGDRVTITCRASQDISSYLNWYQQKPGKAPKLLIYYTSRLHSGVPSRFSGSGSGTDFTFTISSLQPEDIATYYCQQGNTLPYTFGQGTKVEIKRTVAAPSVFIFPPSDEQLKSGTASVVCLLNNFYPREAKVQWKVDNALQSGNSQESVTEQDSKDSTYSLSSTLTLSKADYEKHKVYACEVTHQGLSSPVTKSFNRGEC
notes: VH3-IgG1-F21 with S239K (EU); measured with L(WT)-CK; also called Fv4-IgG1-F140; copies: 2 + 2

- binding result (mouse FcγRIIb [7]): binds
B3: VH3/L(WT)-IgG1-F424 (antibody)
heavy: QVQLQESGPGLVKPSETLSLTCAVSGHSISHDHAWSWVRQPPGEGLEWIGFISYSGITNYNPSLQGRVTISRDNSKNTLYLQMNSLRAEDTAVYYCARSLARTTAMDYWGEGTLVTVSSASTKGPSVFPLAPSSKSTSGGTAALGCLVKDYFPEPVTVSWNSGALTSGVHTFPAVLQSSGLYSLSSVVTVPSSSLGTQTYICNVNHKPSNTKVDKKVEPKSCDKTHTCPPCPAPELLGGPKVFLFPPKPKDTLMISRTAEVTCVVVDVSHEDPEVKFNWYVDGVEVHNAKTKPREEQYNSTYRVVSVLTPLHQDWLNGKEYKCKVSNKALPAPIEKTISKAKGQPREPQVYTLPPSRDELTKNQVSLTCLVKGFYPSDIAVEWESNGQPENNYKTTPPVLDSDGSFFLYSKLTVDKSRWQQGNVFSCSVLHEALHYHYTQKSLSLSP
light: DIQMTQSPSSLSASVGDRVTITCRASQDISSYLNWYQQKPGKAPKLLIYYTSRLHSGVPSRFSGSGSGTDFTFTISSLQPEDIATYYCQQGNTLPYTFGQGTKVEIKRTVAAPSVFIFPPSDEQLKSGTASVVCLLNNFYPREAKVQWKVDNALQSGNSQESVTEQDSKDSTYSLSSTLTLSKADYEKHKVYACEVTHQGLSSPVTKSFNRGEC
notes: VH3-IgG1-F157 with S239K (EU); measured with L(WT)-CK; also called Fv4-IgG1-F424; copies: 2 + 2
